Assay results published in US20230147657A1 (INSERM INSTITUT NATIONAL DE LA SANT ET DE LA RECHERCHE M …, published 2023).

T1: human CD45RC (human, UniProt P08575 26-1306)
T1 construct: Native protein on human blood leukocytes / PBMC / T cells of healthy volunteers; also called hCD45RC
T1 sequence: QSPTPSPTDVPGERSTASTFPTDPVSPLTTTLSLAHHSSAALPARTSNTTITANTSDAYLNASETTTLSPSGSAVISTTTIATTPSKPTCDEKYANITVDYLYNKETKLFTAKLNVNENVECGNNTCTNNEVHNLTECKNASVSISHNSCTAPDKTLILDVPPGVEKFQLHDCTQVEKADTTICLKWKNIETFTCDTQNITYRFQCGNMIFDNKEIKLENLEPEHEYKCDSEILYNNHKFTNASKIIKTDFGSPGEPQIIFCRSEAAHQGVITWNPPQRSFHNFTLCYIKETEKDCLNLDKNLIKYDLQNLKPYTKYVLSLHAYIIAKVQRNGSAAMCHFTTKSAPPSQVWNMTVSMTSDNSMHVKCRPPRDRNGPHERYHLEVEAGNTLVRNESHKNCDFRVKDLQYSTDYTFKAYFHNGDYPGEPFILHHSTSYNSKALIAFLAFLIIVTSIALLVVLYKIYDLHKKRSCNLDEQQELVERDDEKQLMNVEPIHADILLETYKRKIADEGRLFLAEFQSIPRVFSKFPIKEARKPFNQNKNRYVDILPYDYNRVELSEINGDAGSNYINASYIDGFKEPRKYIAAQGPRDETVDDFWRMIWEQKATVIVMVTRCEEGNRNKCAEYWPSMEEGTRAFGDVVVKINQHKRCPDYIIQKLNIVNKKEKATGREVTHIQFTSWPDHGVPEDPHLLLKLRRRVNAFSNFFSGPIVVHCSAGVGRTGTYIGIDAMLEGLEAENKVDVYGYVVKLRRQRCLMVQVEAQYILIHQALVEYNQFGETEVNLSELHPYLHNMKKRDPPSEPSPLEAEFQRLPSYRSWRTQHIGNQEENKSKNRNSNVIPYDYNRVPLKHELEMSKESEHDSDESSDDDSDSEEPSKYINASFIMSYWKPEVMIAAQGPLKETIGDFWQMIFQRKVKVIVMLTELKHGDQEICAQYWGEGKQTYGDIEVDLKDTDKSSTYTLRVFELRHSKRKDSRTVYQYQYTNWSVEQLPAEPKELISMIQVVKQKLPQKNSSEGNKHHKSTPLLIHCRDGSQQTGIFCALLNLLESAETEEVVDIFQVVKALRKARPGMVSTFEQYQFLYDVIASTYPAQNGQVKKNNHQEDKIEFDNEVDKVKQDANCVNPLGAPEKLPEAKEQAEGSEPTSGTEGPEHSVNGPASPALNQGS

T2: human CD45RC in solubilized cell membranes (CD45RC^high PBMCs or CHO cells expressing CD45RC) (human, UniProt P08575 26-1306)
T2 sequence: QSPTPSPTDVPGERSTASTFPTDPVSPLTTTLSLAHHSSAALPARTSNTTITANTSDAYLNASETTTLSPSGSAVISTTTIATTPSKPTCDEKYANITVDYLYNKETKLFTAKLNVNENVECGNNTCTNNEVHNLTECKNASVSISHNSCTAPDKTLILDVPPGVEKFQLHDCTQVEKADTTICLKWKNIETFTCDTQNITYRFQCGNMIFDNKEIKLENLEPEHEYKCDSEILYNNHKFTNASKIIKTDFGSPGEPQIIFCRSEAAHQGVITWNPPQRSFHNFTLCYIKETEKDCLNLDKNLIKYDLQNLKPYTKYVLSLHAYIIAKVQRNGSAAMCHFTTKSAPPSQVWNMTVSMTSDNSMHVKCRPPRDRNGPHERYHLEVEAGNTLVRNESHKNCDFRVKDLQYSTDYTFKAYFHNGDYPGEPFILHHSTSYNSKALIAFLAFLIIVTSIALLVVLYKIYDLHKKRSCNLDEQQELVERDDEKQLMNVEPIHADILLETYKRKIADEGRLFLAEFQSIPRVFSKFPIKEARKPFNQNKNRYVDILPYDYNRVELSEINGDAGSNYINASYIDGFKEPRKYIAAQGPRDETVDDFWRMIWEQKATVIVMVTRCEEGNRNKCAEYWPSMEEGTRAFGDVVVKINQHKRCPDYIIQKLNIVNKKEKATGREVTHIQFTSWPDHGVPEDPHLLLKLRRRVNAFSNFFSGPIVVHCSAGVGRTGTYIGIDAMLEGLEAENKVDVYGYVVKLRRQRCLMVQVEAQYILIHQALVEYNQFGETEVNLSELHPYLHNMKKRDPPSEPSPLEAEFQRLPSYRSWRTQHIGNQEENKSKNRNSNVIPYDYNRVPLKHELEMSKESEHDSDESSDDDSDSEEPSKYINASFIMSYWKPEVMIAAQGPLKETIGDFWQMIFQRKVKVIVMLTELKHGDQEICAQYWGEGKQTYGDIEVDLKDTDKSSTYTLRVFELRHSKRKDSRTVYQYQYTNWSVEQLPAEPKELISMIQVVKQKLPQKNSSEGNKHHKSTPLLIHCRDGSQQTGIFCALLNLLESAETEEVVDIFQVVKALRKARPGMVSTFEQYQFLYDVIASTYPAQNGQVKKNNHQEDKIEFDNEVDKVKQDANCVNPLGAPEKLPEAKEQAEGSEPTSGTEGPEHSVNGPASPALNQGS


Columns and labels:
human CD45RC [1] = target: T1, human CD45RC; test: cell-based or functional assay
[2] = target: T2, human CD45RC in solubilized cell …; test: SPR (BIAcore 3000 / T200), ABIS-45RC immobilized on CM5 chip, solubilized cell membranes as analyte, 25 °C, single cycle kinetics and calibration free concentration analysis
Description: Briefly, 1×10⁷ CD45RC^high PBMCs or CHO cells expressing CD45RC after plasmid transfection were solubilized using the Mem-PER membrane isolation kit (Thermo-fisher).

human CD45RC [3] = target: T1, human CD45RC; test: flow cytometry on T cells of human PBMC; biotin anti-human IgG + streptavidin PerCP-Cy5.5

| Molecule | apoptosis of human T cells after 18 h with transduced Jurkat cells (annexin V / DAPI) (human CD45RC [1]) [%] | Kd [2] [nM] | koff [2] [s⁻¹] | kon [2] [M⁻¹ s⁻¹] | % of T cells in the CD45RC gate at 1 µg/mL (human CD45RC [3]) [%] | % of T cells in the CD45RC gate at 2 µg/mL (human CD45RC [3]) [%] |
| --- | --- | --- | --- | --- | --- | --- |
| Ctrl-CAR (control CAR having a different antigenic specificity) (receptor) | 7 to 8 |  |  |  |  |  |
| ABIS-45RC (antibody, mouse IgG1, kappa, V domains shown, also called murine ABIS-45RC; ABIS-CD45RC) VH: QVQLQQSGAELVRPGTSVKMSCKAAGYTFTNYYIGWVKQRPGHGLEWIGDIFPGGDYANSNEKFKGKATLTADTSSSTAYMQLSSLTSEDSAIYYCVRRNFDYWGQGTTLTVSS VL: QIVLTQSPTIMSASPGEKVTITCSASSSVSYMHWFQQKTGTSPRLWIYNTSNLPSGVPARFSGSGSGTSYSLTISRMEAEDAATYYCQQRSSYPLTFGAGTKLELKR |  | 50 | 0.0144 | 291000 | 61.3 | 61.1 |
